Several values for one entry are separate records, joined by “and”; a condition that tells them apart may be missing. Identical values can stand only once.

Data set [1] deals with the molecule itself. Nature of the data set: AUC.
Data set [2] deals with the molecule itself. Nature of the data set: negative stain electron microscopy.

B1: hyperphosphorylated Cdc15-TAP (natural protein, S. pombe, UniProt Q09822 1-927, looked up)
chain: MEVNGVSQSEAAPYVTKSSVKFRDNFWGSEDAGMDALMSRTKSSLSVLESIDEFYAKRASIEREYASKLQELAASSADIPEVGSTLNNILSMRTETGSMAKAHEEVSQQINTELRNKIREYIDQTEQQKVVAANAIEELYQKKTALEIDLSEKKDAYEYSCNKLNSYMRQTKKMTGRELDKYNLKIRQAALAVKKMDAEYRETNELLLTVTREWIDRWTEVCDAFQHIEEYRLEFLKTNMWAYANIISTACVKDDESCEKIRLTLENTNIDEDITQMIQNEGTGTTIPPLPEFNDYFKENGLNYDIDQLISKAPSYPYSSSRPSASASLASSPTRSAFRPKTSETVSSEVVSSPPTSPLHSPVKPVSNEQVEQVTEVELSIPVPSIQEAESQKPVLTGSSMRRPSVTSPTFEVAARPLTSMDVRSSHNAETEVQAIPAATDISPEVKEGKNSENAITKDNDDIILSSQLQPTATGSRSSRLSFSRHGHGSQTSLGSIKRKSIMERMGRPTSPFMGSSFSNMGSRSTSPTKEGFASNQHATGASVQSDELEDIDPRANVVLNVGPNMLSVGEAPVESTSKEEDKDVPDPIANAMAELSSSMRRRQSTSVDDEAPVSLSKTSSSTRLNGLGYHSRNTSIASDIDGVPKKSTLGAPPAAHTSAQMQRMSNSFASQTKQVFGEQRTENSARESLRHSRSNMSRSPSPMLSRRSSTLRPSFERSASSLSVRQSDVVSPAPSTRARGQSVSGQQRPSSSMSLYGEYNKSQPQLSMQRSVSPNPLGPNRRSSSVLQSQKSTSSNTSNRNNGGYSGSRPSSEMGHRYGSMSGRSMRQVSQRSTSRARSPEPTNRNSVQSKNVDPRATFTAEGEPILGYVIALYDYQAQIPEEISFQKGDTLMVLRTQEDGWWDGEIINVPNSKRGLFPSNFVQTV
modifications: hyperphosphorylated at many sites (sites not given; Supp. Table 1)
A word on the stoichiometry N: it is the number of molecules, sites or subunits per partner or assembly. As to B1, the “stoichiometry N” value in data set [1] was 2 and 4.

B2: His6-Cdc15(F-BAR) (amino acids 19-295) (domain or fragment, S. pombe, UniProt Q09822 19-295, looked up)
chain: SVKFRDNFWGSEDAGMDALMSRTKSSLSVLESIDEFYAKRASIEREYASKLQELAASSADIPEVGSTLNNILSMRTETGSMAKAHEEVSQQINTELRNKIREYIDQTEQQKVVAANAIEELYQKKTALEIDLSEKKDAYEYSCNKLNSYMRQTKKMTGRELDKYNLKIRQAALAVKKMDAEYRETNELLLTVTREWIDRWTEVCDAFQHIEEYRLEFLKTNMWAYANIISTACVKDDESCEKIRLTLENTNIDEDITQMIQNEGTGTTIPPLPEFND
Consider B2, for which the binding result in data set [2] was “binds”.

The values are drawn from article PMC2916701 (Molecular cell, 2010).
